Data on 1 molecule can be found in publication doi:10.1101/2023.02.01.526556.

Experiment [1] addresses AkFaNaC W167F (Aplysia kurodai).
In experiment [2] the target is AkFaNaC W167Y (Aplysia kurodai).

Where no end group is shown, it is not given here.

For the molecule FMRF-NH2 [FMRFamide], the EC50 of the FMRFamide-gated Na+ current (COVC, Xenopus oocytes) in experiment [1] and in experiment [2] was over 100 µM each time.
